Source: article PMC10995091, “Novel glycosidase from Paenibacillus lactis 154 hydrolyzing the 28-O-β-D-glucopyranosyl ester bond of oleanane-type saponins” (Applied Microbiology and Biotechnology, 2024)

Assays:
purified protein = substrate: O=[N+]([O-])c1ccc(O[C@@H]2O[C@H](CO)[C@@H](O)[C@H](O)[C@H]2O)cc1; assay: purified protein; settings: recombinant free enzyme; pH and temperature of the kinetic run not given
[1] = substrate: CC1(C)CC[C@]2(C(=O)O[C@@H]3O[C@H](CO)[C@@H](O)[C@H](O)[C@H]3O)CC[C@]3(C)C(=CC[C@@H]4[C@@]5(C)CC[C@H](O[C@@H]6O[C@H](C(=O)O)[C@@H](O)[C@H](O)[C@H]6O[C@@H]6O[C@H](CO)[C@@H](O)[C@H](O)[C@H]6O)C(C)(C)[C@@H]5CC[C@]43C)[C@@H]2C1; assay: initial rate of ZR1 formation from Ro; type: biochemical, Paenibacillus lactis; settings: recombinant free enzyme; pH and temperature of the kinetic run not given; hydrolysis of the C-28 glucosyl ester

B1: PlGH3 (Paenibacillus lactis; K755R/M754K) (protein)
chain: MRNHTLDTINKTEETVRYVQNPGGPTLGYSEESGVGIIEQDGLFFKDLSRDGKLDNYEDWRLTPEERAKDLASKMTVEQIAGLMLYSRHQSIPALSSGWFAGTYGGKTYEESGAKPWELTDEQIAFLTKDHVRHVLVTTVESPEVAARWNNKIQAFAEGTGLGIPANNSSDPRHASDSSSEFNAGAGGHISMWPETLGLAATFDPEITKKFGMIASREYRALGLATALSPQIDIATEPRWFRFNGTFGEDSKLAADMARAYVDGFQTSEGEREIADGWGYDSVNAMVKHWPGGGSGEAGRDAHYSCGKYAVYPGNNFDEHLVPFTEGAFKLDGKTGKASAVMPYYTISLGQDTVNGENVGNSYNSYLIRDLLRGKYGYDGVVCTDWMITADVSGPKDSFLSGKPWGVEDLTVGERHYKLQMAGVDQFGGNNEIEPVLEAYKIGVREHGEAYMRERFEQSAVRLLKNMFRLGLFENPYLDPQESATLVGNPEFMREGYEAQLKSIVMLKNKNGVLPLRAKSKVYIPKRFLPPGKDWFGNPTPESYDYPVNLEVVSKYFEVTDQPDEAEFGLVFITSPKSGTGYSQEDEERGGNGYVPISLQYKPYTAEHAREISLAGDEHGNEPRNRSYKGKTVIPHNTTDLNMVLETKEKMKGKPVIVSMLLCNPTVVSEFEAEVDAILANFGVQDQAMMEVLTGAAEPSGLLPMQMPAHMRTVEEQLEDVAHDMECHVDSEKHVYDFAFGMNWGGVIEDERTKRYRRS
notes: N-terminal His tag (pET-28a, BamHI/HindIII), E. coli BL21(DE3), Ni-NTA purified
Km (purified protein): 22.76 ± 1.33 µM | kcat (purified protein): 46.18 s⁻¹ | Km [1]: 79.59 ± 3.42 µM | kcat [1]: 18.52 ± 0.28 s⁻¹
